Measured values reported in patent US8551951B2, “Pharmaceutical preparations and methods for inhibiting tumors” (Aenorasis SA Pharmaceuticals and Medical Devices, priority 2000, dated 2013).
Values joined by “and” are separate entries in the source; they are usually repeats but may differ in a detail not shown here. Equal entries are not always repeated.

What was measured:
PC-3 cells [1] = assay: [^3H]-Thymidine uptake assay; assay type: cell-based, human; details: for ^3[H]-Thymidine Uptake (% of control): 72 hours
Description: The in vitro growth inhibition effect of rHuPSP94 was assessed using [^3H]-Thymidine uptake assay. [^3H]-Thymidine uptake assay involves [^3H]-Thymidine incorporation into cellular DNA of actively proliferating cells. It measures the proliferative index of the cells versus the MTS assay, which quantifies the number of lived cells following treatment. Cells were seeded in Costar 96 well cell culture flat bottom plates in RPMI supplemented media containing 50 μg/ml of bovine serum albumin (BSA) and 0.1 μM FeSO4. PC-3 cells were exposed to various concentrations of rHuPSP94 for 72 hours and during the final 16 hours of incubation cells were pulsed with 1 μCi of [^3H]-Thymidine. The radioactivity in each well of the plate is counted by a beta-counter and is expressed as total counts per minutes (cpm). Results of in vitro effect of rHuPSP94 on PC-3 cells using the ^3[H]-Thymidine uptake assay are summarized in Table 3 and are expressed as percentage of radioactivity measured for treated-cells relative to the radioactivity measured for non-treated cells (for which [^3H]-thymidine uptake value was set at 100%).
[^3H]-Thymidine uptake assay involves [^3H]-Thymidine incorporation into cellular DNA of actively proliferating cells. [^3H]-Thymidine uptake assay measures the proliferative index of the cells versus the MTS assay, which quantifies the number of lived cells following treatment. The anti-proliferative effects of PCK3145 and two other synthetic polypeptides derived from the amino and carboxy terminus ends of PSP94 (SEQ ID NO: 4 and NO: 6, respectively) as well as the decapeptide (SEQ ID NO: 3) previously shown to mimic the biological action of native PSP94 were assessed in [H3]-Thymidine uptake assay on PC-3 cells. Two separate experiments were conducted with GMP-grade PCK3145.

PC-3 cells [2] = assay: DNA fragmentation assay (DNA ladder, apoptosis); assay type: cell-based, human
Description: Cell apoptosis result in DNA fragmentation can be evaluated by the presence of a DNA ladder visualized when DNA is run on a 1.2% agarose gel. DNA ladder assay (apoptosis assay) was performed following exposure of PC-3 to various concentrations of the polypeptides for 72 hours. The polypeptides that were used in this particular experiment are polypeptide 7-21 (SEQ ID NO: 4), polypeptide PCK3145 (SEQ ID NO: 5) and polypeptide 76-94 (SEQ ID NO: 6). […] This effect was especially evident following treatment with PCK3145 (SEQ ID NO: 5), which is illustrated by FIG. 7. Lane 1 of the gel illustrated in FIG. 7 represents a lambda HindIII digest standard.
Apoptosis of PC-3 cells, following a 72 hours exposure to PCK3145 at 500 μg/ml concentration, was evaluated in supplemented media by DNA fragmentation assay. Doxorubicin was used as a reference positive control. Untreated cells and PCK3145-treated cells were harvested and the DNA was isolated. Isolated DNA was run on a 1.2% agarose gel containing Ethidium Bromide (EtBr). […] Lane 1 of the gel illustrated in FIG. 25 represents the DNA marker (100 base pair DNA ladder). Lane 2 of the gel illustrated in FIG. 25 represents a control of untreated PC-3 cells.

tumor cells = details: exogenous PSP94, in vivo and in vitro; cited from earlier work
[3] = system: follicle-stimulating hormone (FSH); details: in-vitro and in-vivo in adult male rats; cited from earlier work
[4] = system: human prostate cancer cells PC-3; assay: MTS assay, growth inhibitory effect on PC-3 cells; assay type: cell-based; details: for % Viability (control = 100%): 72 hours
From the text: Cell proliferation was monitored on PC-3 cells using the MTS/PMS (phenazine methosulfate) kit (Promega), which primarily measures mitochondrial activity of live cells. The basic principle of this method involves the fact that the mitochondrial enzymes of the live cells metabolize the MTS/PMS dyes forming a brown colored precipitate which can be measured as optical density (OD) by absorption at 490 nm in a spectrophotometer. Therefore, the OD values are proportional to the number of living cells. In addition, monitoring of cell morphology was also performed. Cell morphology would be indicative of their health status. For example, viable cells would appear adherent and spread out whereas dead cells would be in suspension in the media and would appear granular and round.
PC-3 cells (ATCC, Lot AT06) used in these experiments were at a passage number lower or equal to 70 (n≧70). Cells were seeded in Costar 96 well cell culture flat bottom plates in RPMI supplemented media containing 50 μg/ml of bovine serum albumin (BSA) and 0.1 μM FeSO4. Peptide was diluted in the same media. Cells were continuously exposed to the polypeptides of the present invention for 72 hours without changing media. Native PSP94 or rHuPSP94 concentrated two fold were directly added to wells and diluted to 1× in order to minimize cell manipulation and avoid detachment.
Native PSP94, rHuPSP94, polypeptide 22-36 and PB111 polypeptide (scrambled polypeptide) were also included in this experiment as controls. Cell proliferation assay was performed on either PC-3 cells or normal fibroblasts (used here as control) using the MTS/PMS kit (Promega). Four thousand cells (FIGS. 9 and 10) or three thousand (FIG. 11) cells were seeded in Costar 96 well cell culture flat bottom plates in RPMI supplemented media containing 50 μg/ml of bovine serum albumin (BSA) and 0.1 μM FeSO4. In addition, monitoring of cell morphology was also performed.
This assay measures the mitochondrial activity of the live cells. The basic principle of this method involves the fact that the mitochondrial enzymes of the live cells metabolize the MTS/PMS dyes forming a brown colored precipitate which can be measured as optical density (OD) by absorption at 490 nm in a spectrophotometer. Therefore, the OD values are proportional to the number of living cells.
In addition, a visual observation of the cells was also done to check the cell morphology, which could also be indicative of cell growth. The following conditions for MTS assay were used: PC-3 (ATCC, Lot AT06), passage number n≧70, cell line adapted to grow in serum-free OPTI-MEM and in RPMI supplemented with BSA (50 μg/ml) and Ferrous Sulfate (0.1 μM), continuous exposure for up to 72 hours without changing media (i.e., adding PCK3145 at 2× concentration directly to wells and diluting it 1:2 to 1× to minimize cell manipulation and avoid detachment).

Mat Ly Lu (MLL) tumor [5] = assay: Study MLL-1, Mat LyLu tumor implanted in nude mice; assay type: in vivo; details: 1 μg/kg/day s.c.; p=0.042
Description: (§1) Studies MLL-1 and MLL-2 were performed as follows; on day 0, male Copenhagen rats were injected subcutaneously with 5×10^5 Mat LyLu cells per rat. These cells were derived from cultures of Mat LyLu cell line grown in RPMI media containing 10% (v/v) of fetal calf serum in logarithmic phase of growth. Cells were harvested from the culture flasks by trypsinization, were centrifuged at 1200 rotation per minute (rpm) and washed three timed with Hanks balanced salt solution (HBSS). Following washing, cells were counted and adjusted to a concentration of 5×10^6 cells/ml in HBSS. A 0.1 ml volume of tumor cell inoculum containing 5×10^5 cells was administered subcutaneously into the flank region of each rat. Three days after tumor cell implantation (i.e., inoculation), animals were treated daily by a subcutaneous injection of the desired polypeptide until day 13.
Experiments illustrated in FIG. 12 show the anti-tumor efficacy validation of rHuPSP94 against Mat LyLu (MLL) tumor implanted in nude mice (Protocol based on S. Garde et al.; The Prostate, 22: 225-233, 1993).
For study MLL-1 (FIG. 12), tumor-implanted nude mice were separated in different groups, each receiving various amount of rHuPSP94 or control reagents. The different groups used in these experiments are illustrated below. Each group contained 8 mice.

Mat Ly Lu (MLL) tumor [6] = assay: Study MLL-2, Mat Ly Lu tumor implanted in SCID mice; assay type: in vivo; details: 1 μg/kg/day s.c.; p=0.010
Description: as §1
Experiments illustrated in study MLL-2 show the anti-tumor efficacy validation of rHuPSP94 against Mat Ly Lu (MLL) tumor implanted in severe combined immunodeficiency (SCID) mice (Protocol based on S. Garde et al.; The Prostate, 22: 225-233, 1993).
For study MLL-2 (FIG. 13), tumor-implanted Scid mice were separated in different groups each receiving various amounts of rHuPSP94 or control reagents. The different groups used in these experiments are illustrated below. Each group contained 8 mice.

[7] = system: PC-3 human prostate tumor; assay: PC-3 human prostate tumor in nude mice, subcutaneous treatment for 14 days (Examples 10 and 11); assay type: in vivo, Nude mouse; details: 1 μg/kg body weight per day s.c.
Description: PC-3 human prostate tumor was obtained from ATCC (ATCC 1435). PC-3 cells were grown in RPMI media containing 10% (v/v) of fetal calf serum and were harvested in the logarithmic phase of growth by trypsinization. Cells were centrifuged at 1200 rotation per minute (rpm) and washed three timed with Hanks balanced salt solution (HBSS). Following washing, cells were counted and adjusted to a concentration of 1×10^7 cells/ml in HBSS. A 0.1 ml volume of tumor cell inoculum containing 1×10^6 cells was administered subcutaneously into the two opposite flank region of each Nude mouse (Nu/Nu, BALE/c background). Tumor growth was monitored for approximately 18 days. Once tumor growth has been established (volume of tumor reached a volume of 50 mm^3) treatment with rHuPSP94 (SEQ ID NO: 2) was initiated and was performed once a day for 14 days by the subcutaneous route. Based on the assigned treatment groups illustrated in table 4.
PC-3 human prostate tumor (ATCC 1435) obtained from ATCC was implanted bilaterally into nude mice and tumor growth was monitored for approximately 18 days. PC-3 cells were injected once subcutaneously into each flank of the mice. Once tumor growth has been established (i.e., volume of tumor reached 0.25 to 0.50 cm^3) the treatment with decapeptide (SEQ ID NO: 3), native PSP94 (SEQ ID NO: 1) and control scrambled polypeptide PB111 was initiated and was performed once a day for 14 days by the subcutaneous route based on the treatment groups (randomly assigned) illustrated in table 5.

B1: native PSP94: Prostate Secretory Protein of 94 amino acids, native human seminal plasma protein, SEQ ID NO: 1 (protein)
chain: SCYFIPNEGVPGDSTRKCMDLKGNKHPINSEWQTDNCETCTCYETEISCCTLVSTPVGYDKDNCQRIFKKEDCKYIVVEKKDPKKTCSVSEWII
^3[H]-Thymidine Uptake (% of control) (PC-3 cells [1]; 5 μg/ml): 97 % of control | ^3[H]-Thymidine Uptake (% of control) (PC-3 cells [1]; 10 μg/ml): 98 % of control | ^3[H]-Thymidine Uptake (% of control) (PC-3 cells [1]; 20 μg/ml): 100 % of control | ^3[H]-Thymidine Uptake (% of control) (PC-3 cells [1]; 40 μg/ml): 98 % of control | ^3[H]-Thymidine Uptake (% of control) (PC-3 cells [1]; 80 μg/ml): 77 % of control | reduction in the [H3]-Thymidine uptake (PC-3 cells [1]; 72 hours exposure (FIG. 24)): ~50% | DNA laddering effect (FIG. 7 lane 4) (PC-3 cells [2]; 20 μg): DNA laddering effect | DNA laddering effect (FIG. 7 lane 3) (PC-3 cells [2]; 40 μg): DNA laddering effect | effect on tumor cell growth (tumor cells): inhibitory effect | secretion of circulating FSH [3]: suppress secretion of

B2: rHuPSP94: recombinant human PSP94 expressed in yeast (Pichia pastoris), non-glycosylated, 10 cysteine residues, SEQ ID NO: 2 (protein)
chain: EAEAYVEFSCYFIPNEGVPGDSTRKCMDLKGNKHPINSEWQTDNCETCTCYETEISCCTLVSTPVGYDKDNCQRIFKKEDCKYIVVEKKDPKKTCSVSEWII
modifications: recombinant human PSP94 (rHuPSP94) produced from yeast
% Viability (control = 100%) ([4]; 5 μg/ml): 98% and 92% and 89% | % Viability (control = 100%) ([4]; 10 μg/ml): 84% and 95% and 69% | % Viability (control = 100%) ([4]; 20 μg/ml): 78% and 80% and 79% | % Viability (control = 100%) ([4]; 40 μg/ml): 100% and 70% and 71% and 68% and 72% and 63% and 95% | % Viability (control = 100%) ([4]; 60 μg/ml): 98% and 78% and 63% and 85% and 52% | reduction in cell numbers (i.e., viability) ([4]; 80 μg/ml): 37% and 35% | % Viability (control = 100%) ([4]; 80 μg/ml): 90% and 55% and 59% and 58% and 63% and 78% and 62% | reduction in cell numbers (i.e., viability) ([4]; 120 μg/ml): 57% | % Viability (control = 100%) ([4]; 120 μg/ml): 52% and 43% and 68% and 60% | ^3[H]-Thymidine Uptake (% of control) (PC-3 cells [1]; 5 μg/ml): 94 % of control | ^3[H]-Thymidine Uptake (% of control) (PC-3 cells [1]; 10 μg/ml): 101 % of control | ^3[H]-Thymidine Uptake (% of control) (PC-3 cells [1]; 20 μg/ml): 98 % of control | ^3[H]-Thymidine Uptake (% of control) (PC-3 cells [1]; 40 μg/ml): 79 % of control | reduction in the percentage of cells incorporating [^3H]-thymidine (PC-3 cells [1]; 80 μg/ml for 72 hrs, compared to non-treated control): 65% | ^3[H]-Thymidine Uptake (% of control) (PC-3 cells [1]; 80 μg/ml): 35 % of control | tumor weight reduction (Mat Ly Lu (MLL) tumor [5]): 26% | tumor weight reduction (Mat Ly Lu (MLL) tumor [6]): 65% | tumor growth (tumor volume) [7]: tumor growth reduction | tumor growth reduction compared with Doxorubicin (5 mg/kg/day) [7]: reduction was similar to that observed for Doxorubicin
